In PMC8654305:

Biological target: recombinant C-terminal StrepII-tagged ScSbtB (SbtB from Synechocystis sp. PCC 6803) (Synechocystis sp. PCC 6803), P73954
Test: crystal structure
Settings: remark: other sources report otherwise

stoichiometry N: 3
B1: recombinant C-terminal StrepII-tagged ScSbtB (SbtB from Synechocystis sp. PCC 6803), P73954 1-110 (natural protein)
chain: MAKPANKLVIVTEKILLKKIAKIIDESGAKGYTVMNTGGKGSRNVRSSGQPNTSDIEANIKFEILTETREMAEEIADRVAVKYFNDYAGIIYICSAEVLYGHTFCGPEGC
